Test results as given in patent US20150139996A1.
Where two headings read alike, the source gives them in different places.

Columns and labels:
[1] = target: IgG1 heavy chain with CH3 construct 69 (L351D, L368E) (human) [IgG part: P01857]
[2] = target: IgG1 heavy chain with CH3 construct 69 (L351D, L368E) (human) [IgG part: P01857]; test: native MS (peak height); Tr. 9, 1:1; 1337-KK with 1122-DE
[3] = target: IgG1 heavy chain with CH3 construct 69 (L351D, L368E) (human) [IgG part: P01857]; test: native MS (peak height); Tr. 10, 1:1; 1337-KK with 1025-DE
[4] = target: IgG1 heavy chain with CH3 construct 69 (L351D, L368E) (human) [IgG part: P01857]; test: native MS (peak height); Tr. 1, 2:1:1; AB = 1337-KK with 1122-DE
[5] = target: IgG1 heavy chain with CH3 construct 69 (L351D, L368E) (human) [IgG part: P01857]; test: native MS (peak height); Tr. 1, 2:1:1; AC = 1337-KK with 1025-DE
[6] = target: IgG1 heavy chain with CH3 construct 69 (L351D, L368E) (human) [IgG part: P01857]; test: native MS (peak height); Tr. 2, 2:1:1; AB = 1122-KK with 1337-DE
[7] = target: IgG1 heavy chain with CH3 construct 69 (L351D, L368E) (human) [IgG part: P01857]; test: native MS (peak height); Tr. 2, 2:1:1; AC = 1025-KK with 1337-DE
[8] = target: IgG1 heavy chain with CH3 construct 69 (L351D, L368E) (human) [IgG part: P01857]; test: native MS (peak height); Tr. 3, 1:2:1; AB = 1337-KK with 1122-DE
[9] = target: IgG1 heavy chain with CH3 construct 69 (L351D, L368E) (human) [IgG part: P01857]; test: native MS (peak height); Tr. 3, 1:2:1; BC = 1025-KK with 1122-DE
[10] = target: IgG1 heavy chain with CH3 construct 69 (L351D, L368E) (human) [IgG part: P01857]; test: native MS (peak height); Tr. 4, 1:1:2; AC = 1337-KK with 1025-DE
[11] = target: IgG1 heavy chain with CH3 construct 69 (L351D, L368E) (human) [IgG part: P01857]; test: native MS (peak height); Tr. 4, 1:1:2; BC = 1122-KK with 1025-DE
[12] = target: IgG1 heavy chain with CH3 construct 69 (L351D, L368E) (human) [IgG part: P01857]; test: native MS (peak height); Tr. 5, 2:1:1; AA = 1337-KK with 1337-DE
[13] = target: IgG1 heavy chain with CH3 construct 69 (L351D, L368E) (human) [IgG part: P01857]; test: native MS (peak height); Tr. 5, 2:1:1; AB = 1337-KK with 1122-DE
[14] = target: IgG1 heavy chain with CH3 construct 69 (L351D, L368E) (human) [IgG part: P01857]; test: native MS (peak height); Tr. 6, 1:1:2; AB = 1337-KK with 1122-DE
[15] = target: IgG1 heavy chain with CH3 construct 69 (L351D, L368E) (human) [IgG part: P01857]; test: native MS (peak height); Tr. 6, 1:1:2; BB = 1122-KK with 1122-DE
[16] = target: IgG1 heavy chain with CH3 construct 69 (L351D, L368E) (human) [IgG part: P01857]; test: native MS (peak height); Tr. 7, 2:1:1; AA = 1337-KK with 1337-DE
[17] = target: IgG1 heavy chain with CH3 construct 69 (L351D, L368E) (human) [IgG part: P01857]; test: native MS (peak height); Tr. 7, 2:1:1; AC = 1337-KK with 1025-DE
[18] = target: IgG1 heavy chain with CH3 construct 69 (L351D, L368E) (human) [IgG part: P01857]; test: native MS (peak height); Tr. 8, 1:1:2; AC = 1337-KK with 1025-DE
[19] = target: IgG1 heavy chain with CH3 construct 69 (L351D, L368E) (human) [IgG part: P01857]; test: native MS (peak height); Tr. 8, 1:1:2; CC = 1025-KK with 1025-DE
[20] = target: IgG1 heavy chain with CH3 construct 63 (L351D) (human) [IgG part: P01857]; test: native MS; combination 7 co-expressed (A: VH MF1337, B: VH MF1122)
[21] = target: IgG1 heavy chain with CH3 construct 68 (T366K, L351K) (human) [IgG part: P01857]; test: as above
[22] = target: IgG1 heavy chain with CH3 construct 68 (T366K, L351K) (human) [IgG part: P01857]; test: native MS; combination 8 co-expressed (A: VH MF1337, B: VH MF1122)
[23] = target: IgG1 heavy chain with CH3 construct 72 (L351D, R355D) (human) [IgG part: P01857]; test: as above
[24] = target: IgG1 heavy chain with CH3 construct 68 (T366K, L351K) (human) [IgG part: P01857]; test: native MS; combination 9 co-expressed (A: VH MF1337, B: VH MF1122)
[25] = target: IgG1 heavy chain with CH3 construct 75 (L351D, Y349D, R355D) (human) [IgG part: P01857]; test: as above
[26] = target: IgG1 heavy chain with CH3 construct 68 (T366K, L351K) (human) [IgG part: P01857]; test: native MS; combination 10 co-expressed (A: VH MF1337, B: VH MF1122)
[27] = target: IgG1 heavy chain with CH3 construct 74 (L351D, Y349D) (human) [IgG part: P01857]; test: as above
[28] = target: IgG1 heavy chain with CH3 construct 68 (T366K, L351K) (human) [IgG part: P01857]; test: native MS; combination 11 co-expressed (A: VH MF1337, B: VH MF1122)
[29] = target: IgG1 heavy chain with CH3 construct 71 (L351D, Y349E) (human) [IgG part: P01857]; test: as above
[30] = target: IgG1 heavy chain with CH3 construct 68 (T366K, L351K) (human) [IgG part: P01857]; test: native MS; combination 12 co-expressed (A: VH MF1337, B: VH MF1122)
[31] = target: IgG1 heavy chain with CH3 construct 69 (L351D, L368E) (human) [IgG part: P01857]; test: as above
[32] = target: IgG1 heavy chain with CH3 construct 68 (T366K, L351K) (human) [IgG part: P01857]; test: SDS-PAGE of protein A-purified supernatant; construct expressed alone
[33] = target: IgG1 heavy chain with CH3 construct 69 (L351D, L368E) (human) [IgG part: P01857]; test: native MS (peak height); transfection #11 of Table 24; AB = A/68 with B/69
[34] = target: IgG1 heavy chain with CH3 construct 69 (L351D, L368E) (human) [IgG part: P01857]; test: native MS (peak height); Tr. 11; by a transfection error 1025-DE stood with 1337-KK instead of 1122-KK
[35] = target: IgG1 heavy chain with CH3 construct 69 (L351D, L368E) (human) [IgG part: P01857]; test: native MS (peak height); Tr. 2; AA = DE-DE homodimer of 1337-DE
[36] = target: IgG1 heavy chain with CH3 construct 69 (L351D, L368E) (human) [IgG part: P01857]; test: native MS (peak height); Tr. 4; CC = DE-DE homodimer of 1025-DE
[37] = target: IgG1 heavy chain with CH3 construct 69 (L351D, L368E) (human) [IgG part: P01857]; test: native MS of gel filtrated sample 1516:1337 (MF1516 on DE-side)
[38] = target: IgG1 heavy chain with CH3 construct 69 (L351D, L368E) (human) [IgG part: P01857]; test: native MS; combination 3 co-expressed (A: VH MF1337, B: VH MF1122)
[39] = target: IgG1 heavy chain with CH3 construct 69 (L351D, L368E) (human) [IgG part: P01857]; test: SDS-PAGE of protein A-purified supernatant; construct expressed alone
[40] = target: IgG1 heavy chain with CH3 construct 68 (T366K, L351K) (human) [IgG part: P01857]; test: batch test before the pK study; 1516:1337 (MF1516 on DE-side, MF1337 on KK-side)
[41] = target: IgG1 heavy chain with CH3 construct 2 (K392D, K409D) (human) [IgG part: P01857]; test: native MS (peak height); transfection #9 of Table 24; crossed dimer B/69 with D/2

Work on “IgG1 heavy chain with CH3 construct 68 (T366K, L351K) (from UniProt P01857-1)” yielded a percent of species in the mixture [1] of 30%, an Observed species (%) [2] of over 98% and an Observed species (%) [3] of over 98%. For the same substance, the Observed species (%) [4] was 43%, the Observed species (%) [5] was 57% and the Observed species (%) [6] was 40%. The Observed species (%) [7] was 54%, the Observed species (%) [8] was 54% and the Observed species (%) [9] was 46%. It also gave an Observed species (%) [10] of 66%, an Observed species (%) [11] of 33% and an Observed species (%) [12] of 57%. It also gave an Observed species (%) [13] of 43%, an Observed species (%) [14] of 75% and an Observed species (%) [15] of 25%. It also gave an Observed species (%) [16] of 46%, an Observed species (%) [17] of 54% and an Observed species (%) [18] of 60%. It also gave an Observed species (%) [19] of 40%, a % AB found [20] of 77% and a % AA found [21] of 0%. It also gave a % AA found [22] of 0%, a % AB found [23] of 79% and a % AA found [24] of 1%. The % AB found [25] was 93%, the % AA found [26] was 1% and the % AB found [27] was 95%. For the same substance, the % AA found [28] was 1%, the % AB found [29] was 95% and the % AA found [30] was 0%. For the same substance, the % AB found [31] was 92%, the % IgG [32] was 34.7% and the % half molecule [32] was 65.3%. The percent of species in the mixture [33] was 33% and the Observed species (%) [34] was over 98%.

Substance “IgG1 heavy chain with CH3 construct 69 (L351D, L368E) (from UniProt P01857-1)” has an Observed species (%) [35] of 6%, an Observed species (%) [36] of 1% and a percent of species in the sample [37] of 2%. The % BB found [38] was 0%, the % BB found [31] was 0% and the % IgG [39] was 83.7%. It also gave a % half molecule [39] of 16.3%, a percent bispecific IgG [40] of over 90% and a percent of species in the mixture [41] of 3%.
